# Assay results: patent US20210093714A1, “Combination and method for inhibiting the cancer cells” (NATIONAL TAIWAN UNIVERSITY, priority 2013, published 2021)
# Key:
# EGFR [1] = molecular target: T1, EGFR (Homo sapiens, UniProt P00533); test: FACS of membranous association between CCN2 and EGFR; assay type: cell-based; details: CL1-5 and A549; rCCN2 100 ng/mL; FIG. 2B
# T1 construct: endogenous in cells; host or cells: CL1-5 and A549 human lung adenocarcinoma cell lines
# Description: After washing, cells were stained with an FITC-labelled goat anti-rabbit secondary antibody (Santa Cruz Biotechnology) for 30 min in the dark. Analysis was then conducted with an FACS Calibur cytometer (Collaborative Biomedical, BD Biosciences).
# In this embodiment, the concentration thereof is about 100 ng/mL.
# ERK = test: Western blot of ERK phosphorylation; assay type: cell-based, human; details: CL1-5, A549 and CL1-0/siCCN2; with increasing time; FIG. 3A
# Description: (§1) Proteins ([…]) were separated by SDS-PAGE and transferred to a polyvinylidene difluoride membrane (Immobilon-P membrane; Millipore) by electrotransfer. The blot was blocked in a solution of 5% skim milk and 0.1% Tween 20 in PBS. Thereafter, membrane-bound proteins were probed with the following primary antibodies: CCN2, DAPK, phosphorylated ERK, ERK-1, phosphorylated Akt, Akt, TrkA, phosphorylated-Src, Src, b-actin, a-tubulin (Santa Cruz Biotechnology), p-EGFR, and EGFR (Cell Signaling Technology, Danvers, MA, USA). The membrane was washed and then incubated with HRP-conjugated secondary antibodies for 30 min. Enhanced chemiluminescence reagents (Amersham Pharmacia Biotech, Piscataway, N.J., USA) were employed to depict the protein bands on membranes. The light was captured on Kodak X-Omat Blue autoradiography film (PerkinElmer Life Sciences, Boston, Mass., USA).
# This embodiment focuses on the effect of CCN2 on the EGFR-induced signaling pathways. At first, the effect of exogenous CCN2(rCCN2) on the MAPK/AKT signaling pathways in the lung adenocarcinoma cell lines, CL1-5, A549 and CL1-0/siCCN2 was observed by western blot analysis, the results shown in FIG. 3A.
# EGFR [2] = molecular target: T1, EGFR; test: Western blot of EGFR ubiquitination; assay type: cell-based; details: CL1-5; FIG. 4C
# Description: as §1
# (§2) CCN2 transfectants were seeded overnight and incubated in serum-free media for 24 h. For immunoprecipitations, cells were lysed in an RIPA buffer (150 mM NaCl, 50 mM Tris-base, 5 mM EDTA, 1% NP-40, and 0.25% deoxycholate; pH 7.4). Protein concentrations were determined using the BCA protein assay kit (Pierce, Rockford, Ill., USA). […]
# β-pix/c-Cbl complex = test: Immunoprecipitation/western blot of β-pix/c-Cbl complex and β-pix phosphorylation; assay type: cell-based, human; details: CL1-5; 0 to 60 minutes; FIG. 4G
# Description: as §1, §2
# [3] = tested on: lung adenocarcinoma cell line, CL1-5; test: Anoikis assay (DNA fragmentation); assay type: cell-based, human; details: FIG. 5A
# Source text: This embodiment focuses on whether CCN2 can induce anoikis in lung adenocarcinoma cells in vitro and in vivo. At first, CCN2 induces anoikis which is induced by CCN2 in lung adenocarcinoma cells in vitro was observed by anoikis assay, the results shown in FIGS. 5A to 5C.
# [4] = tested on: lung adenocarcinoma cell line, CL1-5; test: In vivo metastasis of i.v. injected CL1-5, celltracker probe; details: nude mice, i.v. CL1-5; CCN2 1 mg/kg per day; FIG. 5G
# Source text: Mice were anesthetized with isoflurane inhalation, and biofluorescence images were photographed with a CCD camera (IVIS; Xenogen Corporation, Caliper Life Sciences, Hopkinton, Mass., USA) at specific times. Imaging times ranged from 1 to 60 s, depending on the amount of fluorescence activity. Biofluorescence from the region of interest (ROI) was defined manually, and the data were expressed as photon flux (photons/s/cm^2/steradian). Background photon flux was defined using an ROI from a mouse that was not given an […]. injection of cancer cells. All biofluorescence data were collected and analyzed using IVIS. Celltracker dye was purchased from Molecular Probes, Invitrogen Corporation.
# Cells were washed and resuspended in PBS. […] The mice were injected i.v. with cells so that we could measure the metastatic potential and perform biofluorescence imaging. The mice were killed after 8 weeks, and all of their organs were examined for metastasis formation. The lungs were removed and fixed in 10% formalin fixative. The number of lung-tumor colonies was counted under a dissecting microscope. […]
# [5] = tested on: lung adenocarcinoma cell line, CL1-0/siCCN2; test: Anoikis assay with DAPK siRNA; assay type: cell-based, human; details: CL1-0/siCCN2 in suspension, DAPK expression decreased due to siRNA; 24 h; FIG. 6C
# [6] = tested on: mutated-type EGFR (L858R); test: Western blot of EGFR expression, H1299 mutated-type EGFR; assay type: cell-based, human; details: H1299 (single mutation point, L858R); 0 minutes to 4 hours; FIG. 7
# Description: as §1
# First, the effect of rCCN2 on the wild-type EGFR […] lung adenocarcinoma cell line, the mutated-type EGFR H1299 lung adenocarcinoma cell line, and the mutated-type EGFR H1975 lung adenocarcinoma cell line was observed by western blot analysis, the results shown in FIG. 7(Cell lysates of H1299 transfectants or H1975 cells were immunoblotted with anti-EGFR).
# EGFR [7] = test: Western blot of EGFR expression in PC9/WT and PC9/IR; assay type: cell-based; details: 100 ng/mL rCCN2, 0 to 12 hours, FIG. 8C
# Description: as §1
# [8] = tested on: CL1-5 lung adenocarcinoma cell lines; test: MTT Assay, cell survival of CL1-5, rCCN2 and cetuximab; assay type: cell-based, human; details: attached CL1-5; rCCN2 alone 0 to 200 ng/mL; FIG. 8F
molecule,measurement,setting,value
"Connective tissue growth factor (CCN2), wild-type full length (ligand, human, UniProt P29279 27-349, looked up, also called Recombinant CCN2; exogenous CCN2) QNCSGPCRCPDEPAPRCPAGVSLVLDGCGCCRVCAKQLGELCTERDPCDPHKGLFCHFGSPANRKIGVCTAKDGAPCIFGGTVYRSGESFQSSCKYQCTCLDGAVGCMPLCSMDVRLPSPDCPFPRRVKLPGKCCEEWVCDEPKDQTVVGPALAAYRLEDTFGPDPTMIRANCLVQTTEWSACSKTCGMGISTRVTNDNASCRLEKQSRLCMVRPCEADLEENIKKGKKCIRTPKISKPIKFELSGCTSMKTYRAKFCGVCTDGRCCTPHRTTTLPVEFKCPDGEVMKKNMMFIKTCACHYNCPGDNDIFESLYYRKMYGDMA",detection of membranous CCN2,EGFR [1],enhanced the detection of membranous CCN2
same,phosphorylation of ERK (p-ERK1/2),ERK,gradually reduce the phosphorylation of ERK
same,EGFR ubiquitination degree,EGFR [2],increase the EGFR ubiquitination degree
same,formation of β-pix/c-Cbl complex,β-pix/c-Cbl complex,gradually reduce the formation of β-pixie-Chi complex
same,β-pix phosphorylation,β-pix/c-Cbl complex,reduces β-pix phosphorylation
same,DNA fragmentation,"[3]; attached CL1-5, rCCN2 0, 20, 100, 200 ng/mL",no obvious difference
same,DNA fragmentation,"[3]; suspended CL1-5, rCCN2 with higher concentration",increased
same,celltracker signals in lungs,[4],much weaker
same,number of metastatic lung nodules,[4],significantly reduced
same,rCCN2 induced DNA fragmentation,[5],decreased
same,expression of EGFR,[6],inhibit the expression of EGFR more significantly
same,expression of EGFR,EGFR [7]; attached PC9/IR,suppressed more significantly
same,expression of EGFR,EGFR [7]; attached PC9/WT,suppressed more significantly
same,cell survival,[8],not significantly reduced
